Here are results for two molecules from article PMC3252255, “Heterologous overexpression of Glomerella cingulata FAD-dependent glucose dehydrogenase in Escherichia coli and Pichia pastoris” (Microbial Cell Factories, 2011).

The target in data set [1] is T1, recGcGDH (recombinant Glomerella cingulata FAD-dependent glucose dehydrogenase) (Colletotrichum gloeosporioides, UniProt G8E4B5).
T1 construct: gene gdh; native stop codon in primer, no tag; glycosylated, 88-131 kDa on SDS-PAGE, 67 kDa deglycosylated
T1 sequence (G8E4B5 17-600): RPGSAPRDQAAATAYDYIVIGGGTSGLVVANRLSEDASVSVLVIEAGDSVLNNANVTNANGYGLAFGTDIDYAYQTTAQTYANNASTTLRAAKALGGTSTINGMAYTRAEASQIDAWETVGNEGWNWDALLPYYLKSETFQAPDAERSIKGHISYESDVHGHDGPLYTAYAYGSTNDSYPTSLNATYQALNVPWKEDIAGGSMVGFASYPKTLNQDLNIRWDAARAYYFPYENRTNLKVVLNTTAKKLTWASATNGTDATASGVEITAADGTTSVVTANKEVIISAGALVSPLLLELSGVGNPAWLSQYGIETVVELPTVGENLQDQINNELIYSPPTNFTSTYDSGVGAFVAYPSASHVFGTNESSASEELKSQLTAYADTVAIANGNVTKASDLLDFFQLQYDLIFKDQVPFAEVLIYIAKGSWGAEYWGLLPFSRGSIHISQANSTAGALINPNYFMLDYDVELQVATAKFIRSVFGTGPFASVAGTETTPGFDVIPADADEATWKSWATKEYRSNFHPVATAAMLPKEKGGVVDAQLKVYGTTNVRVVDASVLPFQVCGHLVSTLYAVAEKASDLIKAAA
The data set is described as follows: UV/Vis absorption spectrum of purified enzyme, oxidized and glucose-reduced. Particulars: 50 mM citrate pH 5.5, room temperature; FAD bound as purified. The data set is classed as binding.

Substrate in data set [2]: OC[C@H]1OC(O)[C@H](O)[C@@H](O)[C@@H]1O
The data set is described as follows: steady-state kinetics, spectrophotometric ferrocenium reduction. The data set is classed as biochemical, Colletotrichum gloeosporioides. The conditions noted are these: pH 5.5, 30°C, ferrocenium hexafluorophosphate as electron acceptor (20 μM in table, 200 μM in methods), also measured at pH 7.5. An excerpt: steady-state kinetics, spectrophotometric ferrocenium reduction on recGcGDH (recombinant Glomerella cingulata FAD-dependent glucose dehydrogenase)

On to `Cc1cc2nc3c(=O)[nH]c(=O)nc-3n(C[C@H](O)[C@H](O)[C@H](O)COP(=O)(O)OP(=O)(O)OC[C@H]3O[C@@H](n4cnc5c(N)ncnc54)[C@H](O)[C@@H]3O)c2cc1C` [FAD], for which the “UV/Vis absorption spectrum of purified enzyme, oxidized and glucose-reduced” value in data set [1] is “typical flavoprotein spectrum shows the same characteristics as the spectrum of wild-type GcGDH”.

B1: recGcGDH (recombinant Glomerella cingulata FAD-dependent glucose dehydrogenase) (Colletotrichum gloeosporioides) (protein)
chain: RPGSAPRDQAAATAYDYIVIGGGTSGLVVANRLSEDASVSVLVIEAGDSVLNNANVTNANGYGLAFGTDIDYAYQTTAQTYANNASTTLRAAKALGGTSTINGMAYTRAEASQIDAWETVGNEGWNWDALLPYYLKSETFQAPDAERSIKGHISYESDVHGHDGPLYTAYAYGSTNDSYPTSLNATYQALNVPWKEDIAGGSMVGFASYPKTLNQDLNIRWDAARAYYFPYENRTNLKVVLNTTAKKLTWASATNGTDATASGVEITAADGTTSVVTANKEVIISAGALVSPLLLELSGVGNPAWLSQYGIETVVELPTVGENLQDQINNELIYSPPTNFTSTYDSGVGAFVAYPSASHVFGTNESSASEELKSQLTAYADTVAIANGNVTKASDLLDFFQLQYDLIFKDQVPFAEVLIYIAKGSWGAEYWGLLPFSRGSIHISQANSTAGALINPNYFMLDYDVELQVATAKFIRSVFGTGPFASVAGTETTPGFDVIPADADEATWKSWATKEYRSNFHPVATAAMLPKEKGGVVDAQLKVYGTTNVRVVDASVLPFQVCGHLVSTLYAVAEKASDLIKAAA
notes: native stop codon in primer, no tag; glycosylated, 88-131 kDa on SDS-PAGE, 67 kDa deglycosylated
As usually defined, the Km is the concentration of substrate that gives half-maximal velocity. The kcat is the number of substrate molecules converted per active site and unit of time at saturation. By kcat/Km is commonly meant the second-order rate constant that governs catalysis at low substrate concentration. In the case of B1, in data set [2], the Km stood at 10.1 ± 0.4 mM, the kcat was 179 ± 4 s⁻¹ and the specificity constant (kcat/Km) came to 17700 M⁻¹ s⁻¹.
